Data published in IntAct's records for PubMed 28891236.

B1: Adhesion G protein-coupled receptor B2 (Homo sapiens), O60241 (parent)
chain: MENTGWMGKGHRMTPACPLLLSVILSLRLATAFDPAPSACSALASGVLYGAFSLQDLFPTIASGCSWTLENPDPTKYSLYLRFNRQEQVCAHFAPRLLPLDHYLVNFTCLRPSPEEAVAQAESEVGRPEEEEAEAAAGLELCSGSGPFTFLHFDKNFVQLCLSAEPSEAPRLLAPAALAFRFVEVLLINNNNSSQFTCGVLCRWSEECGRAAGRACGFAQPGCSCPGEAGAGSTTTTSPGPPAAHTLSNALVPGGPAPPAEADLHSGSSNDLFTTEMRYGEEPEEEPKVKTQWPRSADEPGLYMAQTGDPAAEEWSPWSVCSLTCGQGLQVRTRSCVSSPYGTLCSGPLRETRPCNNSATCPVHGVWEEWGSWSLCSRSCGRGSRSRMRTCVPPQHGGKACEGPELQTKLCSMAACPVEGQWLEWGPWGPCSTSCANGTQQRSRKCSVAGPAWATCTGALTDTRECSNLECPATDSKWGPWNAWSLCSKTCDTGWQRRFRMCQATGTQGYPCEGTGEEVKPCSEKRCPAFHEMCRDEYVMLMTWKKAAAGEIIYNKCPPNASGSASRRCLLSAQGVAYWGLPSFARCISHEYRYLYLSLREHLAKGQRMLAGEGMSQVVRSLQELLARRTYYSGDLLFSVDILRNVTDTFKRATYVPSADDVQRFFQVVSFMVDAENKEKWDDAQQVSPGSVHLLRVVEDFIHLVGDALKAFQSSLIVTDNLVISIQREPVSAVSSDITFPMRGRRGMKDWVRHSEDRLFLPKEVLSLSSPGKPATSGAAGSPGRGRGPGTVPPGPGHSHQRLLPADPDESSYFVIGAVLYRTLGLILPPPRPPLAVTSRVMTVTVRPPTQPPAEPLITVELSYIINGTTDPHCASWDYSRADASSGDWDTENCQTLETQAAHTRCQCQHLSTFAVLAQPPKDLTLELAGSPSVPLVIGCAVSCMALLTLLAIYAAFWRFIKSERSIILLNFCLSILASNILILVGQSRVLSKGVCTMTAAFLHFFFLSSFCWVLTEAWQSYLAVIGRMRTRLVRKRFLCLGWGLPALVVAVSVGFTRTKGYGTSSYCWLSLEGGLLYAFVGPAAVIVLVNMLIGIIVFNKLMARDGISDKSKKQRAGSERCPWASLLLPCSACGAVPSPLLSSASARNAMASLWSSCVVLPLLALTWMSAVLAMTDRRSVLFQALFAVFNSAQGFVITAVHCFLRREVQDVVKCQMGVCRADESEDSPDSCKNGQLQILSDFEKDVDLACQTVLFKEVNTCNPSTITGTLSRLSLDEDEEPKSCLVGPEGSLSFSPLPGNILVPMAASPGLGEPPPPQEANPVYMCGEGGLRQLDLTWLRPTEPGSEGDYMVLPRRTLSLQPGGGGGGGEDAPRARPEGTPRRAAKTVAHTEGYPSFLSVDHSGLGLGPAYGSLQNPYGMTFQPPPPTPSARQVPEPGERSRTMPRTVPGSTMKMGSLERKKLRYSDLDFEKVMHTRKRHSELYHELNQKFHTFDRYRSQSTAKREKRWSVSSGGAAERSVCTDKPSPGERPSLSQHRRHQSWSTFKSMTLGSLPPKPRERLTLHRAAAWEPTEPPDGDFQTEV

Variants of: B1
Details: with gnaz_human GNAZ

Row | effect of a mutation on the interaction | Variant
1 | with no effect | R1465W

Variants of: B1
Details: with gnai1_human GNAI1, P63096
gnai1_human GNAI1, P63096, sequence (P63096 whole entry): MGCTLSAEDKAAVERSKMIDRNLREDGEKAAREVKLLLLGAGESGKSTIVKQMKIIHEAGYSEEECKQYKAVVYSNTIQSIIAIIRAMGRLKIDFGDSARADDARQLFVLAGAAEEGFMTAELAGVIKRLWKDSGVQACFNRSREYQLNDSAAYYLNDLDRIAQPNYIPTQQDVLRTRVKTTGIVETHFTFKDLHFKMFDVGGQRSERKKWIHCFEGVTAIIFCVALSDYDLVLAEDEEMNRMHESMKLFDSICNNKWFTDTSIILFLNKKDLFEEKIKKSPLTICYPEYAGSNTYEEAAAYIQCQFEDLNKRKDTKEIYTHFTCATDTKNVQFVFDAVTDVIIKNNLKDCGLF

Row | effect of a mutation on the interaction | Variant
2 | causing an interaction | R1465W

Variants of: B1
Details: with arrb2_rat Arrb2, P29067
arrb2_rat Arrb2, P29067, sequence (P29067 whole entry): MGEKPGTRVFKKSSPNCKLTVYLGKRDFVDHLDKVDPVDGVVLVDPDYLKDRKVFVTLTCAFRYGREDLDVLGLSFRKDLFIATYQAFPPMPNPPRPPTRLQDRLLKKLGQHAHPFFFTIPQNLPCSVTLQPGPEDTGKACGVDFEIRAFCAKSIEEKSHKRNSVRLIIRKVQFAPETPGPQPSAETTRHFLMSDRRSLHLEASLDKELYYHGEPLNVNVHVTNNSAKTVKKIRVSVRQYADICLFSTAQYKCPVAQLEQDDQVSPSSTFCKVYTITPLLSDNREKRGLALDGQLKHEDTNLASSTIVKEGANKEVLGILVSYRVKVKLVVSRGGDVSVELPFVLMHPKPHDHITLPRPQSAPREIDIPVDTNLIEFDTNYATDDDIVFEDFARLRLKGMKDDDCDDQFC

Row | effect of a mutation on the interaction | Variant
3 | with no effect | R1465W

Variants of: B1
Details: with sh3g2_human SH3GL2, Q99962
sh3g2_human SH3GL2, Q99962, sequence (Q99962 whole entry): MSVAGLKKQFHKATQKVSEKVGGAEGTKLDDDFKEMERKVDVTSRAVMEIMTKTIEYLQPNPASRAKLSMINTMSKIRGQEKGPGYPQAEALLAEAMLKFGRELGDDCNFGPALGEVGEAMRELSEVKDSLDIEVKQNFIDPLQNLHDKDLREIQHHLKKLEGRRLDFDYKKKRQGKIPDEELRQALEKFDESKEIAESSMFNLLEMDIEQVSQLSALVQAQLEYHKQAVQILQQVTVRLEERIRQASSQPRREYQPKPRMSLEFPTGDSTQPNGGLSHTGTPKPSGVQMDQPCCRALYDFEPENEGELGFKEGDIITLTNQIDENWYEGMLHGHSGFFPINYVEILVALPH

Row | effect of a mutation on the interaction | Variant
4 | disrupting interaction strength | R1465W
